Reference: patent US20140248278A1, “ANTI-CD22 ANTIGEN BINDING MOLECULES TO TREAT LUNG CANCER AND PROSTATE CANCER” (The Regents of the University of California, priority 2011, published 2014)

Assays:
Ramos NHL cells = assay: In vitro cytotoxicity assay, Ramos cells; type: cell-based, human; details: after 48 hours
Procedure: (§1) FIGS. 2A-C illustrate anti-CD22 mediated cytotoxicity and CD22 internalization. (A) Ligation of CD22 mediates cytotoxicity of NSCLC and NHL B cells. Cells were treated with the anti-CD22 or anti-CD20 mAbs (HB22.7 or rituximab, respectively) (50 ug/ml) for 48 hr then assessed with an MTT assay. (B) Internalization of CD22 was assessed on NSCLC cell lines. The degree of internalization was determined by assessing the cytotoxicity of a carrier protein attached to an anti-mouse mAb (ZAP) compared to a non-cytotoxic control (SAP). HB22.7-ZAP and HB22.7-SAP were assessed in Ramos B-cells (top) and two NSCLC cell lines, A549 and H727 (bottom). […] PBMCs (10:1 PBMC:A549 ratio) were incubated +/− complement (1:10 dilution), or +/− huHB22.7 (50 μg/cc). A549-specific cytotoxicity was assessed with a DELFIA EuTDA cytotoxicity assay and reported as % of control.
(§2) Ramos, A549, or H1650 cells (2-2.5×10^4 per sample) were plated in triplicate in 96 well round bottom plates in a volume of 100 μL per well. Cells were treated for 1 hour with HB22.7, or rituximab to final concentrations of 25 μg/mL. Control cells received media only. […] Viability was assessed by trypan blue exclusion; experiments were done in triplicate and results were expressed as % of control (untreated cells) with the error bars representing the standard deviation.

[1] = tested on: NSCLC lines (H1650, Calu-1, A549); assay: In vitro cytotoxicity assay, NSCLC lines; type: cell-based, human; details: after 48 hours
Procedure: as §1, §2

rituximab: anti-CD20 control mAb
cytotoxic effects (Ramos NHL cells): cytotoxic effects | cytotoxic response [1]: no cytotoxic response
